Assay results from patent publication US20250376532A1.

Target: rDR5-IgG4-Fc (UniProt O14763)
Assay: BLI

Kd: 0.102 nM
Substance: AMG655
